Experimental data as given in paper PMC2662861, “An unexpected phosphate binding site in Glyceraldehyde 3-Phosphate Dehydrogenase: Crystal structures of apo, holo and ternary complex of Cryptosporidium parvum enzyme” (BMC Structural Biology, 2009).

Substrate: O=C[C@H](O)COP(=O)(O)O
Assay: purified protein
Assay type: biochemical, Cryptosporidium parvum
Details: 150 μM NAD, 50 mM triethanolamine, 50 mM Na2HPO4, 0.2 mM EDTA, pH 8.8, D-G3H 1.47-5.88 mM supplied as DL-G3H

B1: CpGAPDH (Cryptosporidium parvum glyceraldehyde 3-phosphate dehydrogenase) (Cryptosporidium parvum) (protein)
chain: MTATLGINGFGRIGRLVLRACMERNDITVVAINDPFMDVEYMAYLLKYDSVHGNFNGTVEVSGKDLCINGKVVKVFQAKDPAEIPWGASGAQIVCESTGVFTTEEKASLHLKGGAKKVIISAPPKDNVPMYVMGVNNTEYDPSKFNVISNASCTTNCLAPLAKIINDKFGIVEGLMTTVHSLTANQLTVDGPSKGGKDWRAGRCAGNNIIPASTGAAKAVGKVIPALNGKLTGMAIRVPTPDVSVVDLTCKLAKPASIEEIYQAVKEASNGPMKGIMGYTSDDVVSTDFIGCKYSSIFDKNACIALNDSFVKLISWYDNESGYSNRLVDLAVYVASRGL
notes: recombinant, N-terminal hexa-histidine tag kept, expressed in E. coli; homotetramer
For B1, the Km was 762.7 ± 43.0 µM.
